Experiment [1] deals with Baculovirus-produced recombinant purified active human Src (kinase assays) (human) (UniProt P12931). Description: kinase activity titration (filter-binding Src kinase assay, kinetic fit).
For experiment [2] the target is unchanged. Description: kinase activity titration (filter-binding Src kinase assay, kinetic fit); apparent; increasing RIL alone titrated in the Src kinase reaction with peptide and ATP substrates.

Consider “NS1 wild type (230 aa) from A/Turkey/Italy/977/99 H7N1 (F3) (natural protein)”, for which the Kd in experiment [1] was found to be 400 nM.

B1: recombinant human GST-tagged RIL (natural protein)
chain: MPHSVTLRGPSPWGFRLVGGRDFSAPLTISRVHAGSKAALAALCPGDLIQAINGESTELMTHLEAQNRIKGCHDHLTLSVSRPEGRSWPSAPDDSKAQAHRIHIDPEIQDGSPTTSRRPSGTGTGPEDGRPSLGSPYGQPPRFPVPHNGSSEATLPAQMSTLHVSPPPSADPARGLPRSRDCRVDLGSEVYRMLREPAEPVAAEPKQSGSFRYLQGMLEAGEGGDWPGPGGPRNLKPTASKLGAPLSGLQGLPECTRCGHGIVGTIVKARDKLYHPECFMCSDCGLNLKQRGYFFLDERLYCESHAKARVKPPEGYDVVAVYPNAKVELV
On to B1, for which, in experiment [1], the Kd RIL in the presence of F4 (Δ225–230) was found to be 230 nM and the Kd RIL in the presence of F6 (Δ221–230) is 470 nM. The Kd in experiment [2] worked out at 80 nM.

Source of the values: article PMC3215730.
